Read-outs that look alike come from different tables or passages of the source.
T1: soluble mouse GPNMB-Fc polypeptide (mouse IgG2A Fc) (mouse, UniProt Q99P91 23-502)
T1 construct: extracellular domain; bought (R&D System); also called moGPNMB-Fc; mGPNMB-Fc; not shown: Fc region of mouse IgG2A
T1 sequence (looked up): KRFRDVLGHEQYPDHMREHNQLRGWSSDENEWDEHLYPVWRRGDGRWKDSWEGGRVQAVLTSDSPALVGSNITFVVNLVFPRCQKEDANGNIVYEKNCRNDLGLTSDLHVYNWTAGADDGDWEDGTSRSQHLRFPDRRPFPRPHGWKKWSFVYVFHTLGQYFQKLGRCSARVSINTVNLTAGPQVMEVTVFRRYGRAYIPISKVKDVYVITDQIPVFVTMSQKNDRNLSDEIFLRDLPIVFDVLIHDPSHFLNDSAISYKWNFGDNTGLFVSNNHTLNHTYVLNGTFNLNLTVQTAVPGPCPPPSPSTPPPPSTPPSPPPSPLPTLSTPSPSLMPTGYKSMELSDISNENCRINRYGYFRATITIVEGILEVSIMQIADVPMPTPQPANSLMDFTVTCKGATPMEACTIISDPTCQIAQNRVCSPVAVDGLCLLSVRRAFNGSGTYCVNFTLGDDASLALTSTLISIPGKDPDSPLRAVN

T2: mouse GPNMB endogenously expressed on B16F10 cells (mouse, UniProt Q99P91 23-574)
T2 construct: whole, on cells; also called moGPNMB
T2 sequence (looked up): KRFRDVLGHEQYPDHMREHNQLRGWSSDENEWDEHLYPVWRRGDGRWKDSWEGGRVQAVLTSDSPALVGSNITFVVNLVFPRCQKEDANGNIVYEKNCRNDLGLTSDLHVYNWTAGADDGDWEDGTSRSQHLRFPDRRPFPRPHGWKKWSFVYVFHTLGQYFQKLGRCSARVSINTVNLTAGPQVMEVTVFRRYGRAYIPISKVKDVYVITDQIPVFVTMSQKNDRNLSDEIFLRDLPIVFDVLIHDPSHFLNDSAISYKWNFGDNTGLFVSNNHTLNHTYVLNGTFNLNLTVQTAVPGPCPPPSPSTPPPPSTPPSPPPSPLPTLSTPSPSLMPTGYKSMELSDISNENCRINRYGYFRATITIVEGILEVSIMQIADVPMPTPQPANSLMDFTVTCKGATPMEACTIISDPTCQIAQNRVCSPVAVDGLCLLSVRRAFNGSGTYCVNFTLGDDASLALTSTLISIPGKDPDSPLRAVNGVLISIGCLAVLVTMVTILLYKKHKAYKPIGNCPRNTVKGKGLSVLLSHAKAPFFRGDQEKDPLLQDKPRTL

T3: full-length untagged human GPNMB expressed on cells (human, UniProt Q14956 23-572)
T3 sequence: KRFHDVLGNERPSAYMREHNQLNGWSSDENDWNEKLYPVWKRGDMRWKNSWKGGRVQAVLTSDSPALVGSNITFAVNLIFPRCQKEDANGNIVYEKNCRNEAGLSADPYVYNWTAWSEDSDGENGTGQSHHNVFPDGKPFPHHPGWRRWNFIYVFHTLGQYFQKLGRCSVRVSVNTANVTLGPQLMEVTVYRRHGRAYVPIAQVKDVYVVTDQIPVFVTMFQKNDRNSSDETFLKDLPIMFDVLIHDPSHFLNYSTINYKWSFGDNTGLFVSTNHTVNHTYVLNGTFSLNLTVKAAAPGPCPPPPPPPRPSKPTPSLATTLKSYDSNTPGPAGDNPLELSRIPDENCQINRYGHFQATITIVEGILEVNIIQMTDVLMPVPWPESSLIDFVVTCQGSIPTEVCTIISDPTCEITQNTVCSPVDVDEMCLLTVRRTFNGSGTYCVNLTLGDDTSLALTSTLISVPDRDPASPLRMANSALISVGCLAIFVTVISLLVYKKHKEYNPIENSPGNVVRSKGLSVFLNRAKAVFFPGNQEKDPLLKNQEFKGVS


Experiments:
[1] = target: T1, soluble mouse GPNMB-Fc polypeptide …; experiment: FACS, blocking of mGPNMB-Fc binding to SVEC cells
Method: Purified full-length affinity matured, anti-GPNMB antibodies were evaluated for their ability to block binding of mouse GPNMB-Fc to SVEC cells to calculate the ligand blocking potency of each clone. Briefly, 2 μg/ml soluble mGPNMB-Fc (mouse IgG2A Fc) diluted in binding buffer was pre-complexed with increasing concentrations of anti-GPNMB antibody or human IgG1 isotype control in 96-well plates. Subsequently, 100,000 SVEC cells were added per well and incubated on ice for 30 minutes. Soluble GPNMB-Fc bound to cell surface was detected with fluorescent anti-mouse IgG2A secondary antibody and measured on FACSCanto. Curves were fit using nonlinear regression analysis with Graphpad Prism 6 software.

[2] = target: T2, mouse GPNMB endogenously expressed on …; experiment: FACS titration, B16F10 cells
Method: Affinity matured anti-GPNMB antibodies of the present disclosure were examined to determine their ability to bind human and mouse GPNMB expressed on FS293-huGPNMB+ or B16F10 cells, respectively. Cell-based affinity measurements were performed to ascertain the apparent affinities of anti-GPNMB antibodies to cell-surface expressed GPNMB. Serial dilutions of anti-GPNMB antibodies of the present disclosure were added to 100,000 FS293-huGPNMB+ or B16F10 cells and allowed to achieve binding equilibrium at 4° C. After addition of fluorescently labeled secondary antibody and brief washing steps, MFI values as a function of titrated antibody concentration were recorded via FACS analysis. Equilibrium binding curves were fit using nonlinear regression analysis with Graphpad Prism 6 software.

[3] = target: T3, full-length untagged human GPNMB …; experiment: cell-based or functional assay
[4] = target: T2, mouse GPNMB endogenously expressed on …; experiment: FACS titration, B16F10 cells; remark: listed apart in the source
Method: Cell-based binding measurements were also performed to measure the apparent affinities of anti-GPNMB antibodies of the present disclosure to cell-surface expressed GPNMB. Serial dilutions of the monoclonal anti-GPNMB antibodies were added to 100,000 Freestyle293-huGPNMB+ or B16F10 cells and allowed to achieve binding equilibrium at 4° C. After addition of fluorescently labeled secondary antibody and brief washing steps, MFI values as a function of titrated antibody concentration was recorded via FACS analysis. Curves were fit using nonlinear regression analysis with Graphpad Prism 6 software.

| Binder | IC50 [1] | EC50 [2] | EC50 PDL1 [3] | Fold Increase CD40 (max response at 1 µg/ml) [3] | Fold Increase PDL1 (max response at 1 µg/ml) [3] | EC50 [4] |
| --- | --- | --- | --- | --- | --- | --- |
| anti-GPNMB antibody GPN-83 (antibody, V domains shown) VH: QVQLQESGPGLVKPSETLSLTCTVSGISITTGNYRWSWIRQPPGKGLEWIGYIDYSGTITYNPSLKSRVTITRDTSKNQFSLELSSVTAADTAVYYCARDLTHWYFDVWGQGTLVTVSS VL: DIVMTQSPDSLAVSLGERATINCKSSRSVDYYGIGFVNWYQQKPGQPPKLLIYATSIQGSGVPDRFSGSGSGTDFTLTISSLQAEDVAVYYCQQQKEVPPTFGGGTKVEIK | 1.49 nM | 0.293 nM | 0.91 nM | 2.1 fold | 4.31 fold | – |
| anti-GPNMB antibody GPN-84 (antibody, V domains shown) VH: QVQLQESGPGLVKPSETLSLTCTVSGISITTGNYRWSWIRQPPGKGLEWIGYIDYSGTITYNPSLKSRVTITRDTSKNQFSLELSSVTAADTAVYYCARDLTHWYYDVWGQGTLVTVSS VL: DIVMTQSPDSLAVSLGERATINCKSSRSVDYYGIGFVNWYQQKPGQPPKLLIYATSIQGSGVPDRFSGSGSGTDFTLTISSLQAEDVAVYYCQQQKEVPPTFGGGTKVEIK | 1.44 nM | 0.33 nM | – | – | – | – |
| anti-GPNMB antibody GPN-85 (antibody, V domains shown) VH: QVQLQESGPGLVKPSETLSLTCTVSGISITTGNYRWSWIRQPPGKGLEWIGYIDYSGTITYNPSLKQRVTITRDTSKNQFSLELSSVTAADTAVYYCARDLTHWYFDVWGQGTLVTVSS VL: DIVMTQSPDSLAVSLGERATINCKSSRSVDYFGIGFLNWYQQKPGQPPKLLIYATSHQGSGVPDRFSGSGSGTDFTLTISSLQAEDVAVYYCQQQKEVPPTFGGGTKVEIK | 1.51 nM | 0.317 nM | 0.97 nM | 2.1 fold | 4.22 fold | – |
| anti-GPNMB antibody GPN-87 (antibody, V domains shown) VH: QVQLQESGPGLVKPSETLSLTCTVSGISITTGNYRWSWIRQPPGKGLEWIGYIDYSGTITYNPSLKSRVTITRDTSKNQFSLELSSVTAADTAVYYCARDLTHWYYDVWGQGTLVTVSS VL: DIVMTQSPDSLAVSLGERATINCKSSRSVDYYGIGFLNWYQQKPGQPPKLLIYATSKQGSGVPDRFSGSGSGTDFTLTISSLQAEDVAVYYCQQQKEVPPTFGGGTKVEIK | 0.98 nM | 0.37 nM | 1.36 nM | 2.15 fold | 4.4 fold | – |
| anti-GPNMB antibody GPN-88 (antibody, V domains shown) VH: QVQLQESGPGLVKPSETLSLTCTVSGISITTGNYRWSWIRQPPGKGLEWIGYIDYSGTITYNPSLKSRVTITRDTSKNQFSLELSSVTAADTAVYYCARDLTHWYFDVWGQGTLVTVSS VL: DIVMTQSPDSLAVSLGERATINCKSSRSVDYYGIGFLNWYQQKPGQPPKLLIYATSHQGSGVPDRFSGSGSGTDFTLTISSLQAEDVAVYYCQQQKHVPPTFGGGTKVEIK | 0.625 nM | 0.262 nM | – | – | – | – |
| anti-GPNMB antibody GPN-89 (antibody, V domains shown) VH: QVQLQESGPGLVKPSETLSLTCTVSGISITTGNYRWSWIRQPPGKGLEWIGYIDYSGTITYNPSLKSRVTITRDTSKNQFSLELSSVTAADTAVYYCARDLTHWYYDVWGQGTLVTVSS VL: DIVMTQSPDSLAVSLGERATINCKSSRSVDYYGIGFLNWYQQKPGQPPKLLIYATSHQGSGVPDRFSGSGSGTDFTLTISSLQAEDVAVYYCQQQKEVPPTFGGGTKVEIK | 1.18 nM | 0.443 nM | 1 nM | 2.12 fold | 4.22 fold | – |
| anti-GPNMB antibody GPN-90 (antibody, V domains shown) VH: QVQLQESGPGLVKPSETLSLTCTVSGISITTGNYRWSWIRQPPGKGLEWIGYIDYSGTITYNPSLKQRVTITRDTSKNQFSLELSSVTAADTAVYYCARDLTHWYFDVWGQGTLVTVSS VL: DIVMTQSPDSLAVSLGERATINCKSSRSVDYYGIGFLNWYQQKPGQPPKLLIYATSHQGSGVPDRFSGSGSGTDFTLTISSLQAEDVAVYYCQQQKEVPPTFGGGTKVEIK | 1.43 nM | 0.416 nM | 0.68 nM | 2.12 fold | 4.28 fold | – |
| anti-GPNMB antibody GPN-91 (antibody, V domains shown) VH: QVQLQESGPGLVKPSETLSLTCTVSGISITTGNYRWSWIRQPPGKGLEWIGYIDYSGTITYNPSLKSRVTITRDTSKNQFSLELSSVTAADTAVYYCARDLTHWYFDVWGQGTLVTVSS VL: DIVMTQSPDSLAVSLGERATINCKSSRSVDYYGIGFLNWYQQKPGQPPKLLIYATSHQGSGVPDRFSGSGSGTDFTLTISSLQAEDVAVYYCQQQKERPPTFGGGTKVEIK | 0.64 nM | 0.273 nM | – | – | – | – |
| anti-GPNMB antibody GPN-86 (antibody, V domains shown) VH: QVQLQESGPGLVKPSETLSLTCTVSGISITTGNYRWSWIRQPPGKGLEWIGYIDYSGTITYNPSLKSRVTITRDTSKNQFSLELSSVTAADTAVYYCARDLTHWYFDVWGQGTLVTVSS VL: DIVMTQSPDSLAVSLGERATINCKSSRSVDYYGIGFLNWYQQKPGQPPKLLIYATSKQGSGVPDRFSGSGSGTDFTLTISSLQAEDVAVYYCQQQKEVPPTFGGGTKVEIK | 1.26 nM | 0.178 nM | 1.37 nM | 2.15 fold | 4.57 fold | – |
| anti-GPNMB antibody GPN-52 (antibody, human IgG1, V domains shown, chimeric) VH: DVQLQESGPGLVKPSQTVFLTCTVTGISITTGNYRWSWIRQFPGNKLEWIGYIYYSGTITYNPSLTSRITITRDTPKNEFFLEMNSLTAEDTATYYCARDLTHWYFDVWGTGTTVTVSS VL: not shown | – | – | – | – | – | 1.6 nM |
| anti-GPNMB antibody GPN-35 (antibody, human IgG1, V domains shown, chimeric) VH: EVQLVESGGGSVRPGRSLKLSCAAAGFTFSDYYMTWVRQAPTKGLEWVASINHDGGGTYYRDSVKGRFTISRDNARSSLYLQMDSLRSEDTGTYYCTTRAGWHWGQGVMVTVSS VL: DIQMTQSPASLSASLGETVSIECLASEDIYNYLTWYQQKPGKSPQVLIYSASGLQDGVPSRFSGSGSGRQYSLKINGLESEDAATYFCLQDSEYPLTFGSGTKLEIK | – | – | – | – | – | 2.29 nM |

Source: patent US20250270343A1 (Alector, published 2025)
